Experimental findings from patent US6673357B2, “Alkaloid glycoside for use as a medicament” (University of Southampton, priority 1996, dated 2004) are described below.

The subject of the data set is ovalbumin-transfected EL4 (C57BL/6, H-2b thymoma) monoclonal murine cell line. Nature of the data set: Cytotoxicity assay: T lymphocyte-mediated 51Cr release with spleen cells from immunised mice. Format: cell-based. Particulars: means of triplicate determinations. As to the method: Cytotoxic activity mediated by T lymphocytes was measured using the ovalbumin-transfected EL4 (C57BL/6, H-2b thymoma) monoclonal murine cell line as a target. Untransfected EL4 cells were used as negative controls. Spleen cells (3×10^7) from normal or immunised mice primed 14 days earlier were incubated with 1.5×10^6 irradiated (200 Gy) 15-12 cells (gp160 transfectants) or 3T3 cells (which served as controls) for 5 days. Target cells (1×10^6) were labelled with 100 μCi ^51Cr. Target cells were washed three times in RPMI 1640 medium, diluted to 2×10^5 cells/ml, and 50μ (10^4) of target cells added to each microtitre well containing antigen or peptide (10 μM) and preincubated for 30 min. Effector cells were resuspended in complete mdium (CM) to yield a range of effector: target (E:T) ratios. Target cells (10^4) were then incubated at different E:T ratios in a total volume of 200 μl of 10% CM for an additional 4 h. Supernatants (100 μl) were collected and counted for ^51Cr release. Spontaneous release and maximal release values were determined by incubating target cells in 10% CM alone or 0.1% Triton X-100. Percent Cytotoxicity was calculated using the formula: […]
where ER is experimental release, SR is spontaneous release and […] release. The results shown are shown in Table 4 and represent the means of triplicate determinations.

B1: antigen only: antigen (ovalbumin, OVA) given without adjuvants (protein, UniProt P01012 2-386, looked up)
Ovalbumin: GSIGAASMEFCFDVFKELKVHHANENIFYCPIAIMSALAMVYLGAKDSTRTQINKVVRFDKLPGFGDSIEAQCGTSVNVHSSLRDILNQITKPNDVYSFSLASRLYAEERYPILPEYLQCVKELYRGGLEPINFQTAADQARELINSWVESQTNGIIRNVLQPSSVDSQTAMVLVNAIVFKGLWEKAFKDEDTQAMPFRVTEQESKPVQMMYQIGLFRVASMASEKMKILELPFASGTMSMLVLLPDEVSGLEQLESIINFEKLTEWTSSNVMEERKIKVYLPRMKMEEKYNLTSVLMAMGITDVFSSSANLSGISSAESLKISQAVHAAHAEINEAGREVVGSAEAGVDAASVSEEFRADHPFLFCIKHIATNAVLFFGRCVSP
Take B1: the “% of Cytotoxic lysis” value runs as follows: (E:T ratio 25:1) 19%; (E:T ratio 50:1) 30%; (E:T ratio 100:1) 45%.
